Target: triple-phosphorylated Schizosaccharomyces pombe Dss1, fluorescein-labelled on the C-terminal cysteine (S. pombe) (UniProt O14140)
Assay: MST

B1: FHA domain of Schizosaccharomyces pombe Dma1 (residues 25-160) (domain or fragment)
chain: DKISIRLTNFVGPNAHSFSFDPLVRYWNRKQNNLPIYIGRYTERYNGGDVSAIVFRSKVVSRRHAQIFYENNTWYIQDMGSSSGTFLNHVRLSPPSKTSKPYPISNNDILQLGADYRGGHEVNYRCVRARVELNNS
B1 was tested. Which Kd did it give?
The Kd was 1300 nM.

— paper PMC10443397
